Columns and labels:
Assay in all cases: split reporter
[1] = target: ADGRL4-CTF1 F409A (human) (UniProt Q9HBW9)
[2] = target: ADGRL4-CTF1 I411A (human) (UniProt Q9HBW9)
[3] = target: ADGRL4-CTF1 H408A (human) (UniProt Q9HBW9)
[4] = target: ADGRL4-CTF1 S414A (human) (UniProt Q9HBW9)
[5] = target: ADGRL4-CTF1 L412A (human) (UniProt Q9HBW9)

LgBiT-mini-Gq (mini-Gs/q version 70) (domain or fragment)
Gq coupling as percent of wild-type CTF1 [1]: 12%
reduction of Gq coupling relative to wild-type CTF1 [2]: > 50%
reduction of Gq coupling relative to wild-type CTF1 [3]: > 50%
reduction of Gq coupling relative to wild-type CTF1 [4]: > 50%
reduction of Gq coupling relative to wild-type CTF1 [5]: > 50%

From article doi:10.1101/2025.10.03.680274
